These results are taken from the Human Domainome abundance scans (Beltran et al. 2025).

B1: POU domain, class 6, transcription factor 2, residues 609 to 663; numbered along this chain, P78424 (parent)
chain: KRRTSFTPQALEILNAHFEKNTHPSGQEMTEIAEKLNYDREVVRVWFCNKRQALK

± gives the uncertainty stated by the source.

In this data set the parent is B1. The data set is described as follows: abundance fitness (aPCA) (normalised: wild type 0, dead -1); higher = more abundant; growth selection in yeast, the domain comes from the species named. Particulars: Homo sapiens.
For the variant KRRTSFTPQALEILWAHFEKNTHPSGQEMTEIAEKLNYDREVVRVWFCNKRQALK, the abundance fitness is -0.361 ± 0.11. Turning to KRRTSFTPQALEILQAHFEKNTHPSGQEMTEIAEKLNYDREVVRVWFCNKRQALK, the abundance fitness is -0.281 ± 0.11. Take KRRTSFTPQALEILYAHFEKNTHPSGQEMTEIAEKLNYDREVVRVWFCNKRQALK: the abundance fitness is -0.615 ± 0.24. Take KRRTSFTPQALEILTAHFEKNTHPSGQEMTEIAEKLNYDREVVRVWFCNKRQALK: the abundance fitness was -0.217 ± 0.13. On to KRRTSFTPQALEILRAHFEKNTHPSGQEMTEIAEKLNYDREVVRVWFCNKRQALK, for which the abundance fitness is -0.217 ± 0.084.

On to KRRTSFTPQALEILSAHFEKNTHPSGQEMTEIAEKLNYDREVVRVWFCNKRQALK, for which the abundance fitness was -0.193 ± 0.12.

As for KRRTSFTPQALEILPAHFEKNTHPSGQEMTEIAEKLNYDREVVRVWFCNKRQALK, the abundance fitness is -0.378 ± 0.23. As for KRRTSFTPQALEILVAHFEKNTHPSGQEMTEIAEKLNYDREVVRVWFCNKRQALK, the abundance fitness is -0.307 ± 0.087. Consider KRRTSFTPQALEILNVHFEKNTHPSGQEMTEIAEKLNYDREVVRVWFCNKRQALK, for which the abundance fitness was -0.078 ± 0.06. As for KRRTSFTPQALEILNIHFEKNTHPSGQEMTEIAEKLNYDREVVRVWFCNKRQALK, the figure is -0.183 ± 0.13; as for KRRTSFTPQALEILNRHFEKNTHPSGQEMTEIAEKLNYDREVVRVWFCNKRQALK, -0.084 ± 0.052; as for KRRTSFTPQALEILNDHFEKNTHPSGQEMTEIAEKLNYDREVVRVWFCNKRQALK, 0.113 ± 0.094. The figure for KRRTSFTPQALEILNQHFEKNTHPSGQEMTEIAEKLNYDREVVRVWFCNKRQALK is 0.019 ± 0.12; for KRRTSFTPQALEILNYHFEKNTHPSGQEMTEIAEKLNYDREVVRVWFCNKRQALK it is -0.151 ± 0.12.

Consider KRRTSFTPQALEILNKHFEKNTHPSGQEMTEIAEKLNYDREVVRVWFCNKRQALK, for which the abundance fitness was -0.044 ± 0.1. As to KRRTSFTPQALEILNFHFEKNTHPSGQEMTEIAEKLNYDREVVRVWFCNKRQALK, the abundance fitness is -0.091 ± 0.1.

As for KRRTSFTPQALEILNLHFEKNTHPSGQEMTEIAEKLNYDREVVRVWFCNKRQALK, the abundance fitness is -0.054 ± 0.066. As for KRRTSFTPQALEILNMHFEKNTHPSGQEMTEIAEKLNYDREVVRVWFCNKRQALK, the figure is 0.016 ± 0.09; as for KRRTSFTPQALEILNWHFEKNTHPSGQEMTEIAEKLNYDREVVRVWFCNKRQALK, -0.164 ± 0.065. As to KRRTSFTPQALEILNSHFEKNTHPSGQEMTEIAEKLNYDREVVRVWFCNKRQALK, the abundance fitness is -0.16 ± 0.073. The figure for KRRTSFTPQALEILNEHFEKNTHPSGQEMTEIAEKLNYDREVVRVWFCNKRQALK is -0.002 ± 0.076; for KRRTSFTPQALEILNNHFEKNTHPSGQEMTEIAEKLNYDREVVRVWFCNKRQALK it is 0.02 ± 0.12.

Take KRRTSFTPQALEILNPHFEKNTHPSGQEMTEIAEKLNYDREVVRVWFCNKRQALK: the abundance fitness is -0.865 ± 0.21. In the case of KRRTSFTPQALEILNGHFEKNTHPSGQEMTEIAEKLNYDREVVRVWFCNKRQALK, the abundance fitness is -0.049 ± 0.05. Regarding KRRTSFTPQALEILNHHFEKNTHPSGQEMTEIAEKLNYDREVVRVWFCNKRQALK, the abundance fitness is 0.044 ± 0.17. As for KRRTSFTPQALEILNCHFEKNTHPSGQEMTEIAEKLNYDREVVRVWFCNKRQALK, the figure is -0.164 ± 0.087. As to KRRTSFTPQALEILNASFEKNTHPSGQEMTEIAEKLNYDREVVRVWFCNKRQALK, the abundance fitness was -0.065 ± 0.063. KRRTSFTPQALEILNAVFEKNTHPSGQEMTEIAEKLNYDREVVRVWFCNKRQALK: the abundance fitness is -0.031 ± 0.054. The figure for KRRTSFTPQALEILNAPFEKNTHPSGQEMTEIAEKLNYDREVVRVWFCNKRQALK is -0.961 ± 0.25; for KRRTSFTPQALEILNARFEKNTHPSGQEMTEIAEKLNYDREVVRVWFCNKRQALK it is -0.101 ± 0.057.

For the variant KRRTSFTPQALEILNAGFEKNTHPSGQEMTEIAEKLNYDREVVRVWFCNKRQALK, the abundance fitness is -0.369 ± 0.057. Consider KRRTSFTPQALEILNAYFEKNTHPSGQEMTEIAEKLNYDREVVRVWFCNKRQALK, for which the abundance fitness was -0.065 ± 0.092.

For the variant KRRTSFTPQALEILNADFEKNTHPSGQEMTEIAEKLNYDREVVRVWFCNKRQALK, the abundance fitness is -0.156 ± 0.09. The figure for KRRTSFTPQALEILNAIFEKNTHPSGQEMTEIAEKLNYDREVVRVWFCNKRQALK is -0.028 ± 0.12. With KRRTSFTPQALEILNAFFEKNTHPSGQEMTEIAEKLNYDREVVRVWFCNKRQALK, the abundance fitness is -0.056 ± 0.098. As for KRRTSFTPQALEILNAKFEKNTHPSGQEMTEIAEKLNYDREVVRVWFCNKRQALK, the figure is 0.04 ± 0.1. With KRRTSFTPQALEILNANFEKNTHPSGQEMTEIAEKLNYDREVVRVWFCNKRQALK, the abundance fitness was -0.101 ± 0.15. As for KRRTSFTPQALEILNALFEKNTHPSGQEMTEIAEKLNYDREVVRVWFCNKRQALK, the figure is -0.008 ± 0.058; as for KRRTSFTPQALEILNAMFEKNTHPSGQEMTEIAEKLNYDREVVRVWFCNKRQALK, -0.028 ± 0.077; as for KRRTSFTPQALEILNAQFEKNTHPSGQEMTEIAEKLNYDREVVRVWFCNKRQALK, -0.002 ± 0.086. With KRRTSFTPQALEILNAAFEKNTHPSGQEMTEIAEKLNYDREVVRVWFCNKRQALK, the abundance fitness is -0.03 ± 0.067. The figure for KRRTSFTPQALEILNACFEKNTHPSGQEMTEIAEKLNYDREVVRVWFCNKRQALK is -0.063 ± 0.072; for KRRTSFTPQALEILNAWFEKNTHPSGQEMTEIAEKLNYDREVVRVWFCNKRQALK it is 0.011 ± 0.068; for KRRTSFTPQALEILNAEFEKNTHPSGQEMTEIAEKLNYDREVVRVWFCNKRQALK it is 0.064 ± 0.072. For the variant KRRTSFTPQALEILNAHCEKNTHPSGQEMTEIAEKLNYDREVVRVWFCNKRQALK, the abundance fitness was -0.522 ± 0.11. On to KRRTSFTPQALEILNAHHEKNTHPSGQEMTEIAEKLNYDREVVRVWFCNKRQALK, for which the abundance fitness is -0.698 ± 0.2. On to KRRTSFTPQALEILNAHGEKNTHPSGQEMTEIAEKLNYDREVVRVWFCNKRQALK, for which the abundance fitness was -0.848 ± 0.063.

Turning to KRRTSFTPQALEILNAHEEKNTHPSGQEMTEIAEKLNYDREVVRVWFCNKRQALK, the abundance fitness is -0.892 ± 0.11.
